Measurements taken from patent US20030021765A1 (Biogen, published 2003).
Positions count from the first letter of the chain named.

T1: IFNAR2/Ig fusion protein (IFNAR2 extracellular domain fused to the hinge, CH2 and CH3 domains of human IgG1) (human, UniProt P48551 27-243)
T1 construct: extracellular domain; also called IFNAR2/Fc; IFNAR2-Fc; not shown: human IgG1 constant region: hinge, CH2 and CH3 domains
T1 sequence (looked up): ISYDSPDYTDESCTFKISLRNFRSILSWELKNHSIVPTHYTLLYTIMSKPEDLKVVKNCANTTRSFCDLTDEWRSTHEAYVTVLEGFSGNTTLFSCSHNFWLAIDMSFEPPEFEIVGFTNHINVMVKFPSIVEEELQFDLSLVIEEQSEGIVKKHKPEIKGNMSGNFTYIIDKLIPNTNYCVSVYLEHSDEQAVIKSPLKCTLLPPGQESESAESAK

B1: his tagged-interferon-beta alanine substitution mutant AB1 (ligand)
chain: SGGHHHHHHSSGDDDDKMSYNLLGFLQRSSNFQCQKLLWQLNGRAAACAADRMNFDIPEEIKQLQQFQKEDAALTIYEMLQNIFAIFRQDSSSTGWNETIVENLLANVYHQINHLKTVLEEKLEKEDFTRGKLMSSLHLKRYYGRILHYLKAKEYSHCAWTIVRVEILRNFYFINRLTGYLRN
notes: Tested as EBNA 293 conditioned medium
B2: his tagged-interferon-beta alanine substitution mutant AB2 (ligand)
chain: B1 chain with A45L, A46E, A47Y, A49L, A50K, M53A, N54A, D56A, E59A
notes: as for B1
B3: his tagged-interferon-beta alanine substitution mutant A2 (ligand)
chain: SGGHHHHHHSSGDDDDKMSYNLLGFLQRSSNAACAALLAALNGRLEYCLKDRMNFDIPEEIKQLQQFQKEDAALTIYEMLQNIFAIFRQDSSSTGWNETIVENLLANVYHQINHLKTVLEEKLEKEDFTRGKLMSSLHLKRYYGRILHYLKAKEYSHCAWTIVRVEILRNFYFINRLTGYLRN
notes: Tested as EBNA 293 conditioned medium; also called A2 helix mutant
B4: his tagged-interferon-beta alanine substitution mutant E (ligand)
chain: B1 chain with A45L, A46E, A47Y, A49L, A50K, V165A, R169A, Y172A, N175A
notes: also called E helix mutant
B5: his tagged-wild-type interferon-beta-1a (ligand)
chain: B1 chain with A45L, A46E, A47Y, A49L, A50K
notes: Expressed in human EBNA 293 cells and tested as conditioned medium; also called wild type his-IFN-beta; w.t. his-IFN-beta

target: T1, IFNAR2/Ig fusion protein (IFNAR2 …); test: ELISA on captured IFNAR2-Fc
Method: (§1) The receptor binding properties of the Interferon-beta mutants described in C were assessed using two different binding assays. One assay measured binding of the interferon-beta mutants to a fusion protein, IFNAR2/Ig, comprising the extracellular domain of the human IFNAR2 receptor chain fused to part of the constant region of a human IgG. IFNAR2-Fc was expressed in chinese hamster ovary (CHO) cells and purified by protein A sepharose affinity chromatography according to the instructions of the manufacturer (Pierce Chem. Co., Rockford, Ill., catalog #20334). The binding of interferon-beta mutants to IFNAR2-Fc was measured in an ELISA format assay. ELISA plates were prepared by coating flat-bottomed 96 well plates overnight at 4° C. with 50 μl/well of mouse anti-human IgG1 monoclonal antibody (CDG5-AA9, Biogen, Inc.) at 10 μg/ml in coating buffer (50 mM NaHCO₃, 0.2 mM MgCl₂, 0.2 mM CaCl₂, pH 9.6). Plates were washed twice with PBS containing 0.05% Tween-20, and blocked with 0.5% non-fat dry milk in PBS for 1 hour at room temperature. After two more washes, 50 μl of 1 μg/ml IFNAR2-Fc in 0.5% milk in PBS containing 0.05% Tween-20 was added to each well and incubated for 1 hour at room temperature, and the plates were then washed twice more. Binding of the interferon-beta mutants to IFNAR2-Fc was measured by adding 50 μl/well mutant interferon-beta in conditioned media, serially diluted in Dulbecco's Modified Eagle's Medium (DMEM) supplemented with 10% fetal bovine serum, and incubating for 2 hours at 4° C. Dilutions of interferon-beta mutant typically ranged from approximately 1 μM down to 10 pM. After washing, interferon-beta bound to the plates was detected by adding 50 μl/well of a cocktail consisting of a 1:1000 dilution of a rabbit polyclonal anti-interferon antibody (#447) plus horseradish peroxidase (HRP)-labelled donkey anti-rabbit IgG (Jackson ImmunoResearch), and incubating for 15 minutes at 4° C. After two washes, HRP substrate was added, and the plate was incubated at 4° C. before being read on an ELISA plate reader at an absorbance of 450 nm. Data were plotted as absorbance versus the concentration of mutant interferon-beta, and the affinity for the binding of the mutant interferon-beta to IFNAR2-Fc was determined by fitting the data to a simple hyperbolic binding equation.

EC50 relative to w.t. his-IFN-beta EC50	Binder
> 500 fold of w.t. his-IFN-beta EC50	B1
> 500 fold of w.t. his-IFN-beta EC50	B2
> 500 fold of w.t. his-IFN-beta EC50	B3
> 500 fold of w.t. his-IFN-beta EC50	B4

target: T1, IFNAR2/Ig fusion protein (IFNAR2 …); test: ELISA; IFNAR2-Fc captured on anti-human IgG1 plate; mutant in conditioned medium
Method: as §1

binding result	Binder
no binding	B1
no binding	B2
no binding	B3
no binding	B4

target: T1, IFNAR2/Ig fusion protein (IFNAR2 …); test: ELISA on captured IFNAR2-Fc; reference, value not given
Method: The receptor binding properties of the Interferon-beta mutants described in C were assessed using two different binding assays. One assay measured binding of the interferon-beta mutants to a fusion protein, IFNAR2/Ig, comprising the extracellular domain of the human IFNAR2 receptor chain fused to part of the constant region of a human IgG. IFNAR2-Fc was expressed in chinese hamster ovary (CHO) cells and purified by protein A sepharose affinity chromatography according to the instructions of the manufacturer (Pierce Chem. Co., Rockford, Ill., catalog #20334). The binding of interferon-beta mutants to IFNAR2-Fc was measured in an ELISA format assay. […] Binding of the interferon-beta mutants to IFNAR2-Fc was measured by adding 50 μl/well mutant interferon-beta in conditioned media, serially diluted in Dulbecco's Modified Eagle's Medium (DMEM) supplemented with 10% fetal bovine serum, and incubating for 2 hours at 4° C. […] After washing, interferon-beta bound to the plates was detected by adding 50 μl/well of a cocktail consisting of a 1:1000 dilution of a rabbit polyclonal anti-interferon antibody (#447) plus horseradish peroxidase (HRP)-labelled donkey anti-rabbit IgG (Jackson ImmunoResearch), and incubating for 15 minutes at 4° C. After two washes, HRP substrate was added, and the plate was incubated at 4° C. before being read on an ELISA plate reader at an absorbance of 450 nm. […]

binding result	Binder
binds	B5
